Results from the RNAGym collection of RNA variant scans (doi:10.1093/molbev/msab373).

B1: Azoarcus group I ribozyme (parent)
chain: GUGCCUUGCGCCGGGAAACCACGCAAGGGAUGGUGUCAAAUUCGGCGAAACCUAAGCGCCCGCCCGGGCGUAUGGCAACGCCGAGCCAAGCUUCGGCGCCUGCGCCGAUGAAGGUGUAGAGACUAGACGGCACCCACCUAAGGCAAACGCUAUGGUGAAGGCAUAGUCCAGGGAGUGGCGAAAGUCACACAAACCGG

Variants of: B1
Assay: reverse-splicing fitness (ratio to wild type); higher = more active; in vitro selection; Mg2+ level not given
Outline: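 An in vitro group I ribozyme library with randomized positions was T7-transcribed and gel-purified. In triplicate, 10 pmol RNA in EPPS pH 7.5 was reacted with 50 pmoles of a 30-nt RNA substrate for 1 h at 37 °C across several added MgCl2 levels (1–48 mM), then stopped with EDTA. Products were reverse transcribed from a substrate-complementary primer, PCR-amplified and sequenced (HiSeq 4000). Fitness is a variant's read proportion after selection over that before, normalised to wild type.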

Going from C82A A111C A145U C150G C169G to C82A A111C A145U C150G C169U, the reverse-splicing fitness rises from 0.00748 to 0.00887.

First: C82A A111C A145U C150G C169A
Second: C82A A111C C169G
The reverse-splicing fitness of the first is lower: 0.0091 for the first, 0.00911 for the second.

First: C82A A111C C169A
Second: C82A A111C A145U C150G U176C
The reverse-splicing fitness of the first is lower: 0.00822 for the first, 0.0161 for the second.

Compared with C82A A111C A145U C150G U176G, C82A A111C A145U C150G U176A is higher in reverse-splicing fitness: 0.00428 for the first, 0.00919 for the second.

First: C82A A111C C150A C169A U176G
Second: C82A A111C C150A C169A U176A
The reverse-splicing fitness of the first is lower: 0.00857 for the first, 0.0188 for the second.

First: C82A A111C C150A C169A U176C
Second: C82A A111C A145U C150G C169U U176G
The reverse-splicing fitness of the first is higher: 0.0237 for the first, 0.00827 for the second.

First: C82A A111C A145U C150G C169U U176C
Second: C82A A111C A145U C150G C169U U176A
The reverse-splicing fitness of the first is higher: 0.0113 for the first, 0.00845 for the second.

First: C82A A111C A145G C150U C169U
Second: C82A A111C A145G C150U C169G
The reverse-splicing fitness of the first is higher: 0.0119 for the first, 0.00915 for the second.

Going from C82A A111C A145G C150U C169A to C82A A111C A145U C150A C169U U176C, the reverse-splicing fitness rises from 0.0103 to 0.0167.

Compared with C82A A111C A145U C150A C169U U176A, C82A A111C A145U C150A C169U U176G is lower in reverse-splicing fitness: 0.0155 for the first, 0.00853 for the second.

First: C82A A111C A145U C150A C169G
Second: C82A A111C A145U C150A C169A
The reverse-splicing fitness of the first is lower: 0.00915 for the first, 0.00982 for the second.

Compared with C82A A111C A145U C150A C169U, C82A A111C A145U C150U U176C is higher in reverse-splicing fitness: 0.0123 for the first, 0.0623 for the second.

Compared with C82A A111C A145U C150U U176G, C82A A111C A145U C150U U176A is higher in reverse-splicing fitness: 0.0141 for the first, 0.0486 for the second.

Compared with C82A A111C A145G C150G U176G, C82A A111C A145G C150G U176C is higher in reverse-splicing fitness: 0.00607 for the first, 0.0173 for the second.

Going from C82A A111C A145G C150G U176A to C82A A111C A145G C169U U176A, the reverse-splicing fitness rises from 0.00936 to 0.0177.

First: C82A A111C A145G C169U U176G
Second: C82A A111C A145G C169U U176C
The reverse-splicing fitness of the first is lower: 0.0073 for the first, 0.0149 for the second.

Compared with C82A A111C A145G C150G C169G U176G, C82A A111C A145G C150G C169G U176A is higher in reverse-splicing fitness: 0.00568 for the first, 0.00988 for the second.

Going from C82A A111C A145G C150G C169G U176C to C82A A111C C169A U176G, the reverse-splicing fitness falls from 0.0128 to 0.00874.

Compared with C82A A111C C169A U176C, C82A A111C C169A U176A is lower in reverse-splicing fitness: 0.0237 for the first, 0.0171 for the second.

Going from C82A A111C A145G C150U U176A to C82A A111C A145G C150U U176C, the reverse-splicing fitness rises from 0.0494 to 0.086.

First: C82A A111C A145G C150U U176G
Second: C82A A111C A145G C150A U176C
The reverse-splicing fitness of the first is lower: 0.0141 for the first, 0.0335 for the second.

Compared with C82A A111C A145G C150A U176A, C82A A111C A145G C150A U176G is lower in reverse-splicing fitness: 0.0153 for the first, 0.00922 for the second.

Going from C82A A111C A145G C169G U176C to C82A A111C A145G C169G U176G, the reverse-splicing fitness falls from 0.0335 to 0.00836.

Compared with C82A A111C A145G C169G U176A, C82A A111C A145U C150U C169A U176G is lower in reverse-splicing fitness: 0.0221 for the first, 0.00861 for the second.

First: C82A A111C A145U C150U C169A U176A
Second: C82A A111C A145U C150U C169A U176C
The reverse-splicing fitness of the first is lower: 0.014 for the first, 0.0146 for the second.

First: C82A A111C C150G C169G U176C
Second: C82A A111C C150G C169G U176A
The reverse-splicing fitness of the first is lower: 0.00508 for the first, 0.00718 for the second.

Going from C82A A111C C150G C169G U176G to C82A A111C A145U C169G, the reverse-splicing fitness rises from 0.00585 to 0.0101.

Compared with C82A A111C A145U C169U, C82A A111C A145U C169A is lower in reverse-splicing fitness: 0.0124 for the first, 0.0078 for the second.

Going from C82A A111C A145U C150U C169U U176A to C82A A111C A145U C150U C169U U176C, the reverse-splicing fitness falls from 0.0172 to 0.0144.

Going from C82A A111C A145U C150U C169U U176G to C82A A111C A145U C169A U176G, the reverse-splicing fitness rises from 0.00857 to 0.0095.

Going from C82A A111C A145U C169A U176C to C82A A111C A145U C169A U176A, the reverse-splicing fitness falls from 0.0156 to 0.0138.

Compared with C82A A111C A145G C150U C169G U176A, C82A A111C A145G C150U C169G U176G is lower in reverse-splicing fitness: 0.0115 for the first, 0.00687 for the second.

Compared with C82A A111C A145G C150U C169G U176C, C82A A111C C150G U176G is lower in reverse-splicing fitness: 0.0162 for the first, 0.00364 for the second.

Going from C82A A111C C150G U176A to C82A A111C C150G U176C, the reverse-splicing fitness rises from 0.0084 to 0.0124.

Going from C82A A111C A145U C150G to C82A A111C A145U C150A, the reverse-splicing fitness rises from 0.0181 to 0.0227.

First: C82A A111C A145U C150U
Second: C82A A111C A145U C150A C169G U176A
The reverse-splicing fitness of the first is higher: 0.135 for the first, 0.014 for the second.

First: C82A A111C A145U C150A C169G U176C
Second: C82A A111C A145U C150A C169G U176G
The reverse-splicing fitness of the first is higher: 0.022 for the first, 0.0087 for the second.

Going from C82A A111C C150U C169U U176A to C82A A111C C150U C169U U176C, the reverse-splicing fitness falls from 0.0165 to 0.0147.

Going from C82A A111C C150U C169U U176G to C82A A111C A145U C169U U176A, the reverse-splicing fitness rises from 0.00804 to 0.0149.

Compared with C82A A111C A145U C169U U176C, C82A A111C A145U C169U U176G is lower in reverse-splicing fitness: 0.0144 for the first, 0.00718 for the second.

Compared with C82A A111C A145U C150U C169G, C82A A111C A145U C150U C169A is lower in reverse-splicing fitness: 0.00899 for the first, 0.00867 for the second.

Variant C82A A111C A145U C150U C169U has a reverse-splicing fitness of 0.0128.
